Experimental findings from patent US20180023057A1 are described below.

The experiment has as its target E-cadherin on human iPS cells (TkDN4-M) (human) (UniProt P12830). In words: cell-based or functional assay.

Chain of E-cadherin on human iPS cells (TkDN4-M) (human) (P12830 155-882 limits assumed): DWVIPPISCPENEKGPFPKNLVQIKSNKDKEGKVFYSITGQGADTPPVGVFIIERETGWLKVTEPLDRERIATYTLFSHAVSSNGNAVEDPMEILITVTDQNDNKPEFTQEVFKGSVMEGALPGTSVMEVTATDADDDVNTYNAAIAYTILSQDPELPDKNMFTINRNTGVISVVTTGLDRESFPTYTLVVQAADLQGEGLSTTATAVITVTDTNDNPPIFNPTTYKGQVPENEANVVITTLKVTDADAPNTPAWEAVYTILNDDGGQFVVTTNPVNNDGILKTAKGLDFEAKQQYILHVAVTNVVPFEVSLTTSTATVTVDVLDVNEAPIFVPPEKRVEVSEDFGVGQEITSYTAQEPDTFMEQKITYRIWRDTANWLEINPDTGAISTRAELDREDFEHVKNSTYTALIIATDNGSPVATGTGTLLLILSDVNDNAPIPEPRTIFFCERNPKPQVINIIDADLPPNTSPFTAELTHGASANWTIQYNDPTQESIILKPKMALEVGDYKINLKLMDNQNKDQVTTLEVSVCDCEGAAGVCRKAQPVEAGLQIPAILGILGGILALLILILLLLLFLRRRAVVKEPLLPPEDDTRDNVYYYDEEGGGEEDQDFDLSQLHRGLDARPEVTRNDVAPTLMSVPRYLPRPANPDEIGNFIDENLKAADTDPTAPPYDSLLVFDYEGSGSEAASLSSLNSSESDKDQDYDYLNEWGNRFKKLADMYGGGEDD

B1: E-cadherin-Fc fusion protein (Fc fusion, not shown: a dimerising Fc or GST)
chain: DWVIPPISCPENEKGEFPKNLVQIKSNRDKETKVFYSITGQGADKPPVGVFIIERETGWLKVTQPLDREAIAKYILYSHAVSSNGEAVEDPMEIVITVTDQNDNRPEFTQPVFEGFVAEGAVPGTSVMKVSATDADDDVNTYNAAIAYTIVSQDPELPHKNMFTVNRDTGVISVLTSGLDRESYPTYTLVVQAADLQGEGLSTTAKAVITVKDINDNAPVFNPSTYQGQVPENEVNARIATLKVTDDDAPNTPAWKAVYTVVNDPDQQFVVVTDPTTNDGILKTAKGLDFEAKQQYILHVRVENEEPFEGSLVPSTATVTVDVVDVNEAPIFMPAERRVEVPEDFGVGQEITSYTAREPDTFMDQKITYRIWRDTANWLEINPETGAIFTRAEMDREDAEHVKNSTYVALIIATDDGSPIATGTGTLLLVLLDVNDNAPIPEPRNMQFCQRNPQPHIITILDPDLPPNTSPFTAELTHGASVNWTIEYNDAAQESLILQPRKDLEIGEYKIHLKLADNQNKDQVTTLDVHVCDCEGTVNNCMKAGIVAAGLQV
On to B1, for which the diameter of hiPS cell aggregates on Day 5 of culture in Essential 8, E-cadherin-Fc 50 or 100 µg/ml for the first 48 hours was determined as 500 µm; the sizes of hiPS cell aggregates 48 hours after the E-cadherin-Fc treatment, 5 µg/ml (without E-cadherin-Fc: 1000 to 3000 µm) lay within 300 to 700 µm; the sizes of hiPS cell aggregates 48 hours after the E-cadherin-Fc treatment, 10 µg/ml was in the range of 200 to 400 µm; the sizes of hiPS cell aggregates 48 hours after the E-cadherin-Fc treatment, 20 µg/ml lay in the range of 100 to 500 µm. In addition, the sizes of hiPS cell aggregates 48 hours after the E-cadherin-Fc treatment, 50 µg/ml fell in the range of 100 to 300 µm and the sizes of hiPS cell aggregates 48 hours after the E-cadherin-Fc treatment, 100 µg/ml is 150 to 700 µm.
